Substrate in the data set: CC1=C(C(=O)c2ccc(Br)cc2)C(=O)C2C=CC=CC2C1=O
Description: 1,4-Naphthoquinone reductase activity of P. falciparum glutathione reductase. In kind it is biochemical, Plasmodium falciparum. The settings on record: other: pH 6.9, 100 μM NADPH, 1% DMSO.
Description: The reduction assay mixture consisted of 100 mM potassium phosphate buffer pH 6.9, 200 mM KCl, 1 mM EDTA and 100 μM NADPH in a total volume of 1 mL. 1,4-naphthoquinone reductase activity was determined by recording the initial velocities in the presence of increasing naphthoquinone concentrations (0-300 μM). The 1,4-naphthoquinone was first dissolved in DMSO, and a final 1% DMSO concentration was kept constant in the 1,4-naphthoquinone reductase assay. For the determination of KM and Vmax values, the steady-state rates were fitted by using nonlinear regression analysis software (Kaleidagraph) to the Michaelis-Menten equation. From these values, the turnover number kcat and the catalytic efficiency kcat/KM were calculated.

B1: P. falciparum glutathione reductase (PfGR) (Plasmodium falciparum K1) (protein)
chain: VYDLIVIGGGSGGMAAARRAARHNAKVALVEKSRLGGTCVNVGCVPKKIMFNAASVHDILENSRHYGFDTKFSFNLPLLVERRDKYIQRLNNIYRQNLSKDKVDLYEGTASFLSENRILIKGTKDNNNKDNGPLNEEILEGRNILIAVGNKPVFPPVKGIENTISSDEFFNIKESKKIGIVGSGYIAVELINVIKRLGIDSYIFARGNRILRKFDESVINVLENDMKKNNINIVTFADVVEIKKVSDKNLSIHLSDGRIYEHFDHVIYCVGRSPDTENLKLEKLNVETNNNYIVVDENQRTSVNNIYAVGDCCMVKKSKEIEDLNLLKLYNEERYLNKKENVTEDIFYNVQLTPVAINAGRLLADRLFLKKTRKTNYKLIPTVIFSHPPIGTIGLSEEAAIQIYGKENVKIYESKFTNLFFSVYDIEPELKEKTYLKLVCVGKDELIKGLHIIGLNADEIVQGFAVALKMNATKKDFDETIPIHPTAAEEFLTLQPWMK
For B1, the Michaelis-Menten constant (Km) was 6.1 µM.

Broadly, the Km is the concentration of substrate that gives half-maximal velocity.

Values taken from US9090549B2, “1,4-naphthoquinones derivatives and therapeutic use thereof” (CENTRE NATIONAL DE LA RECHERCHE SCIENTIFIQUE (C.N.R.S.), priority 2008, dated 2015).
